Assay results from paper PMC4434323.

What was measured:
[1] = molecular target: T1, F52B5.7 (F52B5.7) (Caenorhabditis elegans) (UniProt Q7YWZ7)
T1 sequence: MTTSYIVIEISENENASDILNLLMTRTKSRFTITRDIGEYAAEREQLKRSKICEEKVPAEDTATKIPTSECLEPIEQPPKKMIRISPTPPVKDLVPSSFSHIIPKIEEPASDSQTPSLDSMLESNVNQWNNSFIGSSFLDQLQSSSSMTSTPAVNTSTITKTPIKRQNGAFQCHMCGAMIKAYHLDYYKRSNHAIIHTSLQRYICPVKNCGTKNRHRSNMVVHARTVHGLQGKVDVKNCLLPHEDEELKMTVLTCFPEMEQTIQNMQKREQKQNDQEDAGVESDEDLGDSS

[2] = molecular target: pag-3 (F45B8.4) (Caenorhabditis elegans) (UniProt G5EDE1)
pag-3 (F45B8.4) (Caenorhabditis elegans), sequence (G5EDE1 76-311): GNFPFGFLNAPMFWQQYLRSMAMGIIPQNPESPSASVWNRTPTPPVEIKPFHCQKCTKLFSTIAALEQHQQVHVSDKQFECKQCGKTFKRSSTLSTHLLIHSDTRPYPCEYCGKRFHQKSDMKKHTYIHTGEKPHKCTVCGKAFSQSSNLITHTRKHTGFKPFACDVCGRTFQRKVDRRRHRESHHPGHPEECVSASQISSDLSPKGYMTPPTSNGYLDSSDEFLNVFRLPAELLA

[3] = molecular target: T2, ham-2 (C07A12.1) (Caenorhabditis elegans) (UniProt H2KYH4)
T2 sequence: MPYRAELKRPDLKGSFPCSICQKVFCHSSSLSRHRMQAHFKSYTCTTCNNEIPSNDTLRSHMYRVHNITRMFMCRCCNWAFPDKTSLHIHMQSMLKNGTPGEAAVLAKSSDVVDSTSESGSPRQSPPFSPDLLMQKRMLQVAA

[4] = molecular target: T3, ztf-29 (Y66D12A.12) (Caenorhabditis elegans) (UniProt Q95Q03)
T3 sequence: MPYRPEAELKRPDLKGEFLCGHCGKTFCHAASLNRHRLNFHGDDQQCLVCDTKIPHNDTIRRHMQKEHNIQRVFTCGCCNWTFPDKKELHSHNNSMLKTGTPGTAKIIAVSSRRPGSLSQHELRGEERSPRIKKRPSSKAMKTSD

[5] = molecular target: T4, lsy-27 (F47H4.1) (Caenorhabditis elegans) (UniProt O45526)
T4 sequence: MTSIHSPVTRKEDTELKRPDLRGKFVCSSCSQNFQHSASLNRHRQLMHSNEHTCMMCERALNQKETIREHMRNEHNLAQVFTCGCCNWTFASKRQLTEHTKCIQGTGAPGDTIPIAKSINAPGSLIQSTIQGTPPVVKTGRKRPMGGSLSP

[6] = molecular target: T5, che-1 (C55B7.12) (Caenorhabditis elegans) (UniProt Q966L8)
T5 sequence: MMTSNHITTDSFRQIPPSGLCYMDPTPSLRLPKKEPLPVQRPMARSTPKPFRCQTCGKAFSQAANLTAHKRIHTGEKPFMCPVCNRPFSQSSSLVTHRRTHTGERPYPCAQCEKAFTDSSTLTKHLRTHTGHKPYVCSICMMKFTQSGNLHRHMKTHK

Sequence | binding signal (PBM E-score (-0.5 to 0.5)) [2] | binding signal (PBM E-score (-0.5 to 0.5)) [5] | other results
TACCCATA (double strand) [8-mer TACCCATA] |  |  | binding signal (PBM E-score (-0.5 to 0.5)) [1]: 0.485
AAATCTGA (double strand) [8-mer AAATCTGA] | 0.486 |  | 
ACCCATGG (double strand) [8-mer ACCCATGG] |  |  | binding signal (PBM E-score (-0.5 to 0.5)) [1]: 0.485
CCCCATAG (double strand) [8-mer CCCCATAG] |  |  | binding signal (PBM E-score (-0.5 to 0.5)) [1]: 0.492
CCCCCATA (double strand) [8-mer CCCCCATA] |  |  | binding signal (PBM E-score (-0.5 to 0.5)) [1]: 0.485
AATCTGTG (double strand) [8-mer AATCTGTG] | 0.487 |  | 
ACCCCATA (double strand) [8-mer ACCCCATA] |  |  | binding signal (PBM E-score (-0.5 to 0.5)) [1]: 0.496
AAGCTTAA (double strand) [8-mer AAGCTTAA] |  | 0.493 | binding signal (PBM E-score (-0.5 to 0.5)) [3]: 0.493; binding signal (PBM E-score (-0.5 to 0.5)) [4]: 0.494
GCTTCACC (double strand) [8-mer GCTTCACC] |  | 0.491 | 
ACCCCATG (double strand) [8-mer ACCCCATG] |  |  | binding signal (PBM E-score (-0.5 to 0.5)) [1]: 0.486
AGCTTCAT (double strand) [8-mer AGCTTCAT] |  | 0.494 | 
AAGCTTCA (double strand) [8-mer AAGCTTCA] |  | 0.497 | binding signal (PBM E-score (-0.5 to 0.5)) [4]: 0.489
GGCTTCAC (double strand) [8-mer GGCTTCAC] |  | 0.49 | binding signal (PBM E-score (-0.5 to 0.5)) [6]: 0.492
GAAGCTTC (double strand) [8-mer GAAGCTTC] |  | 0.496 | binding signal (PBM E-score (-0.5 to 0.5)) [4]: 0.494
AATCACAG (double strand) [8-mer AATCACAG] | 0.491 |  | 
AAAGCTTT (double strand) [8-mer AAAGCTTT] |  | 0.491 | binding signal (PBM E-score (-0.5 to 0.5)) [3]: 0.478; binding signal (PBM E-score (-0.5 to 0.5)) [4]: 0.496
AAGCTTCT (double strand) [8-mer AAGCTTCT] |  | 0.496 | binding signal (PBM E-score (-0.5 to 0.5)) [4]: 0.49

Sequence | binding signal (PBM E-score (-0.5 to 0.5)) [2] | binding signal (PBM E-score (-0.5 to 0.5)) [5] | other results
AAATCTGT (double strand) [8-mer AAATCTGT] | 0.49 |  | 
AAGCTTTA (double strand) [8-mer AAGCTTTA] |  | 0.49 | binding signal (PBM E-score (-0.5 to 0.5)) [3]: 0.482; binding signal (PBM E-score (-0.5 to 0.5)) [4]: 0.494
AATCTCAG (double strand) [8-mer AATCTCAG] | 0.49 |  | 
AGCTTCAC (double strand) [8-mer AGCTTCAC] |  | 0.493 | 
AAAATCTG (double strand) [8-mer AAAATCTG] | 0.491 |  | 
AGCTTCTG (double strand) [8-mer AGCTTCTG] |  | 0.491 | 
AAAGCTTC (double strand) [8-mer AAAGCTTC] |  | 0.492 | binding signal (PBM E-score (-0.5 to 0.5)) [4]: 0.486
CAAATCTG (double strand) [8-mer CAAATCTG] | 0.489 |  | 
AATCAGTG (double strand) [8-mer AATCAGTG] | 0.491 |  | 
AGCTTCAG (double strand) [8-mer AGCTTCAG] |  | 0.491 | 
AAATCTCA (double strand) [8-mer AAATCTCA] | 0.487 |  | 
AATCACTG (double strand) [8-mer AATCACTG] | 0.49 |  | 
CAGATTTA (double strand) [8-mer CAGATTTA] | 0.489 |  | 
AAATCACG (double strand) [8-mer AAATCACG] | 0.492 |  | 
AAATCACA (double strand) [8-mer AAATCACA] | 0.49 |  | 
GCTTAAGC (double strand) [8-mer GCTTAAGC] |  | 0.494 | binding signal (PBM E-score (-0.5 to 0.5)) [3]: 0.493; binding signal (PBM E-score (-0.5 to 0.5)) [4]: 0.491
GAAGCTTA (double strand) [8-mer GAAGCTTA] |  | 0.493 | binding signal (PBM E-score (-0.5 to 0.5)) [3]: 0.482; binding signal (PBM E-score (-0.5 to 0.5)) [4]: 0.485
